Target: baby hamster kidney (BHK) cells
Assay: cell binding to BHK cells at a constant virus/cell ratio (1000:1)

**Q.** Which Cell Binding, % does the source give for “foot-and-mouth disease virus (FMDV) type A12, wild-type virus (VRGDF at amino acids 143-147 of VP1)” here?
**A.** 65%

Source: patent US5612040
